Consider four molecules from paper PMC7533888.

What is called Kd is the constant that tells how readily two partners part at equilibrium. Read a low Kd as higher affinity.

Series [1] has as its target T1, AtARF5-DBD (Arabidopsis thaliana, UniProt P93024 1-390).
T1 sequence: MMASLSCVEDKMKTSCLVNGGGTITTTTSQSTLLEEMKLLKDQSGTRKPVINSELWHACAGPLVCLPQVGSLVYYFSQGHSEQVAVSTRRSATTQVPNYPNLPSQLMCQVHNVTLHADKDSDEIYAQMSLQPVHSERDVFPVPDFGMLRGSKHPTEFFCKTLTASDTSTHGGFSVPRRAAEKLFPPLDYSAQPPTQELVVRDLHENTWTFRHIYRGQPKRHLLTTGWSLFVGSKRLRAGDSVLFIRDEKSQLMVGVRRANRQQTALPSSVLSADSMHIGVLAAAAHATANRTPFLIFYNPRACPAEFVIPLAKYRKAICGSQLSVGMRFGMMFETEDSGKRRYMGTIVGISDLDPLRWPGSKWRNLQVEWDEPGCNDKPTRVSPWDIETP
The series can be described thus: size-exclusion chromatography. In general terms: Size exclusion chromatography separates by hydrodynamic size, large species first.

Series [2] addresses T1, AtARF5-DBD. Nature of the series: smFRET titration.
The next series addresses T2, AtARF1-DBD (Arabidopsis thaliana, UniProt Q8L7G0 1-355).
T2 sequence: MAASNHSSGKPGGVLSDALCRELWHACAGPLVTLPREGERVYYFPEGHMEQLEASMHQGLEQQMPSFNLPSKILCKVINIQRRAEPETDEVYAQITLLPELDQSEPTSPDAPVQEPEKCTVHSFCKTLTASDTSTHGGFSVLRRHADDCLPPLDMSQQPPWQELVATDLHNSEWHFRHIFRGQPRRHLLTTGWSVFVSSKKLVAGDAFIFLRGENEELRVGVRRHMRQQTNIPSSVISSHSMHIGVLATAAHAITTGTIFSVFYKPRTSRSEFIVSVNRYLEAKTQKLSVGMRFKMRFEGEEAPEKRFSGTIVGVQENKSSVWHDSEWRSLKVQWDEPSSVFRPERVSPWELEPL
The series can be described thus: smFRET titration.

B1: pTMO5Δ1-IR7 (dsDNA)
DNA 1: TGGTCTCTGGTCGGTTTTTTA
DNA 2: TAAAAAACCGACCAGAGACCA
With B1, the binding result with AtARF5-DBD [1] is given as “no binding”.

B2: IR8 (dsDNA)
DNA 1: ACTCTTTTTTGTCGGGGAAAAGGCCGACAATCCGTGTG
DNA 2: CACACGGATTGTCGGCCTTTTCCCCGACAAAAAAGAGT
For B2, the results for the Kd with AtARF5-DBD [2] and with AtARF1-DBD were 9 nM and 140 nM, respectively.

B3: DR5 (dsDNA)
DNA 1: ACTGCCTTTTGTCGGCCTTTTGTCGGATCCGTGTG
DNA 2: CACACGGATCCGACAAAAGGCCGACAAAAGGCAGT
In the case of B3, the Kd with AtARF5-DBD [2] was determined as 60 nM; with AtARF1-DBD it was 570 nM.

B4: pTMO5Δ2-IR7 (dsDNA)
DNA 1: TTTTTTTTGGTCGGTTTTTTA
DNA 2: TAAAAAACCGACCAAAAAAAA
In the case of B4, the binding result with AtARF5-DBD [1] was “no binding”.
